The record followed here is PMC6294249, “CryoEM reveals how the complement membrane attack complex ruptures lipid bilayers” (Nature Communications, 2018).

One experiment deals with T1, complement C6 (human, UniProt P13671 22-934).
T1 construct: complement component C6, human; 10 domains (TSP1, TSP2, LDL, MACPF, EGF, TSP3, CCP1, CCP2, FIM1, FIM2); It stood in the assay as part of the bought C5b6 complex; FIM1 and FIM2 were left out of the atomic model (weak or no density); source: bought: Complement Technology (as the C5b6 complex)
As to the kind of experiment: cryo-EM structure; human MAC assembled on DOPC:DOPE liposomes by sequential addition of C5b6, C7, C8 and C9 (molar ratio 1:1:1:18, 1 h at 37 °C, then 4 °C overnight; 20 mM HEPES-NaOH, 150 mM NaCl, pH 7.4), solubilised in Cymal-5, purified by sucrose density centrifugation; open and closed conformations separated by 3D classification. The conditions noted are these: both partners purified.

Experiment [1] has as its target T2, complement C8 alpha chain (human, UniProt P07357 31-584, N-linked glycan at N407).
T2 construct: complement component C8 alpha chain, human; It stood in the assay as one chain of the bought C8 heterotrimer (α, β, γ); also called C8α; source: bought: Complement Technology (as C8)
The description is as above. The conditions noted are these: both partners purified.

T1 sequence (P13671 22-934): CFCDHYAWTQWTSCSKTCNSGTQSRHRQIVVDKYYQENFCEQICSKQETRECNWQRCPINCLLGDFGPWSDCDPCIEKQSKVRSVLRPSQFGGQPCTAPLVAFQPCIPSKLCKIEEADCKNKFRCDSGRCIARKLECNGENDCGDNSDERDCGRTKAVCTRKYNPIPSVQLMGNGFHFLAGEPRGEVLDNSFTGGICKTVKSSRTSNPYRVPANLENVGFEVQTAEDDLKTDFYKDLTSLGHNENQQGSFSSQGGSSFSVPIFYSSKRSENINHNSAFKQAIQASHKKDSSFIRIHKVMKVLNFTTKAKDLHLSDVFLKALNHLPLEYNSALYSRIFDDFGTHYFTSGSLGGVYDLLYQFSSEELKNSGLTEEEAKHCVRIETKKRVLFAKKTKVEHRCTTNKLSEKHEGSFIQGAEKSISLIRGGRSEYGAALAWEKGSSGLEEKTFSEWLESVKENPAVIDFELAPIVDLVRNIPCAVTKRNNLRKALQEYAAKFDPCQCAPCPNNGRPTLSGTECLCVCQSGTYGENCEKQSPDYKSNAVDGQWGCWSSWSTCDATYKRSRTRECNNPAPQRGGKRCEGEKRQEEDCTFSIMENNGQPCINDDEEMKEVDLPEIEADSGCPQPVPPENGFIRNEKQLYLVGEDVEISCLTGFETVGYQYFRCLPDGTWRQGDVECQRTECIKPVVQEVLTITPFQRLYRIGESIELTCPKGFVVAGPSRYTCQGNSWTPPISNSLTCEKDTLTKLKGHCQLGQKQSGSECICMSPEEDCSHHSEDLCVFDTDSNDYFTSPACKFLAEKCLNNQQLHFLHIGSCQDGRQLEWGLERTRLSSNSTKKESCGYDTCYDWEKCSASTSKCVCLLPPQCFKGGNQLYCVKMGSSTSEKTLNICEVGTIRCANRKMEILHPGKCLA
T2 sequence (P07357 31-584): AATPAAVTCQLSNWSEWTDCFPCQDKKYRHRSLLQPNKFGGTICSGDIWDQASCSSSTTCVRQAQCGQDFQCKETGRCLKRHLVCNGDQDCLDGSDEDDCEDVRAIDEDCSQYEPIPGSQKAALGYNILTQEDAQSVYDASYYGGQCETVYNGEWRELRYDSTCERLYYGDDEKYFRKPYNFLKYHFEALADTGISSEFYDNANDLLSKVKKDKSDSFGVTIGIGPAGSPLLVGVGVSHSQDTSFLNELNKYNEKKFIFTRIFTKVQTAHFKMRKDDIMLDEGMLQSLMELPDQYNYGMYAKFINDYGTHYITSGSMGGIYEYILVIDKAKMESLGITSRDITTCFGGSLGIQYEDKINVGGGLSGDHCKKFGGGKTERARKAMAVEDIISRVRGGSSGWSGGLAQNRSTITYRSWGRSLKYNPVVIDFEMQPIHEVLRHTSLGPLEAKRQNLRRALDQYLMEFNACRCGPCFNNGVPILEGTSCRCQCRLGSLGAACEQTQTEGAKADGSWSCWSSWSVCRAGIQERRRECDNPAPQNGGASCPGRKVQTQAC

B1: complement C9 (natural protein)
chain: not shown
modifications: N-linked glycans at N215, N256, N394; O-linked glycan at T427
notes: complement component C9, human; The model began from a homology model with C8β as template; source: bought: Complement Technology
In the case of B1, the binding result (in the experiment with complement C6; in experiment [1]) was “binds” each time.
